In patent US20260216328A1, “DISRUPTABLE LINKER COMPOSITIONS, SWITCHABLE BISPECIFIC T CELL NANOENGAGER (SWITCH-BITE) COMPOSITIONS COMPRISING THE SAME, AND METHODS OF USE THEREOF” (The Trustees of the University of Pennsylvania, priority 2023, published 2026):

Assays:
Raji-Luc-GFP cells = test: Antitumour efficacy in normal NSG mice with Raji-Luc-GFP tumour; format: in vivo, mouse; conditions: days 1, 3, 5
Source text: FIGS. 43A-43C: comparison of the antitumour efficacy of SITE and Blinatumomab. In order to solely compare the antitumour capacity of Blinatumomab and the SiTE, CD19 antigen was not expressed in mouse liver so BiTNE or SiTE treatment will not induce on-target, off-tumour toxicity. Additionally, normal NSG mice (without humanization) were used to construct the tumour model so the mice will not develop CRS. FIG. 43A: Raji-Luc-GFP cells were i.v. injected to mice at day −14. Tumour bearing mice were treated with Blinatumomab or SiTE at days 1, 3, or 5. FIG. 43B: mice were imaged using IVIS at days 0, 5, 9, and 13 to monitor the tumour burden level. c, Quantification of the luminescence levels in FIG. 43B. The data in FIG. 43C were plotted as mean s.d. (n=5) f. P value in FIG. 43C was determined using one-way ANOVA.
In order to specifically assess the antitumour efficacy of Blinatumomab and the SiTE, expression of the CD19 antigen in the mouse liver was refrained from. By employing this approach, it was ensured that treatment with either Blinatumomab or SiTE would not elicit on-target, off-tumour toxicity. To further avoid the effect of CRS on the evaluation of the therapeutic outcome of Blinatumomab and SiTE, normal NSG mice were employed, devoid of humanization.

[1] = Half-life and biodistribution of Blinatumomab and CD3/CD19 SiTE; format: in vivo, mouse
Experimental: FIGS. 17A-17F: half-life and in vivo biodistribution of Blinatumomab. FIGS. 17A-17B: Blinatumomab was labeled with Cy7 and was i.v. injected to healthy untreated mice. 10 μL of blood at 0, 1, 2, 4, 6, 12, 24, 36 and 48 h was collected and imaged using IVIS. The fluorescence signal at different time points were quantified (FIG. 17B). FIG. 17C: the biodistribution of Blinatumomab in healthy mice was also investigated 24 h after Blinatumomab-Cy7 injection. FIG. 17D: In order to mimic a clinical patient treatment, a mouse model was constructed with CD19 expression in the liver and a subcutaneous B-cell lymphoma model. Blinatumomab-Cy7 was i.v. injected at 0 h. The mice were euthanized at 24 h and the distribution of Blinatumomab-Cy7 in major organs and tumour was evaluated. The Blinatumomab-Cy7 mainly accumulates in the liver, spleen and tumour. The distribution of SiTE that targets human CD3 and human CD19 antigen was evaluated in both healthy untreated mice (FIG. 17E) and in a mouse model with CD19 expression in the liver and has a subcutaneous B-cell lymphoma tumour (FIG. 17F), similar results were obtained.
Encouraged by the results from the in vitro experiments, the controllable activity of SiTE was evaluated in vivo. […] It was also analyzed if the biodistribution of SiTE both in healthy NSG mice and in Raji tumour-bearing humanized NSG mice that express CD19 antigen in the liver. […]

[2] = system: Raji-Luc-GFP tumour cells; test: Cytokine release syndrome in humanized NSG-SGM3 mice with Raji-Luc-GFP tumour; format: in vivo, mouse
Experimental: An in vivo imaging system (IVIS) was used to monitor tumour burden in vivo. […] FIGS. 41C-41E: Mouse body weight, temperature and survival curves, respectively. n=10 mice. […] The data in FIGS. 41C-41D and FIGS. 41F-41J were plotted as mean±s.d. (n=10) from three independent experiments. […] P value in FIG. 41E was determined using Log-rank (Mantel-Cox) test.
SiTE and Blinatumomab were also compared with regard to treating symptoms of CRS and neurotoxicity. The humanized mouse model was constructed as before, but this time the piggybac transposon system was not used to express CD19 in the mouse livers. This allowed better analysis of the effects of the SiTE on CRS and neurotoxicity (FIG. 41A). Raji-Luc-GFP cells were i.v. injected at day −14. Blinatumomab, SiTE or PBS were i.v. injected to the mice at day one. Mouse tumour burden, body weight, temperature, and plasma cytokine levels were monitored (FIGS. 41B-41J).

[3] = system: Raji-Luc-GFP tumour cells; test: Humanized immune system mice with liver CD19 and Raji-Luc-GFP tumour; conditions: SiTE targets human CD3/CD19
[4] = mouse, in vivo; cited from earlier work
[5] = system: Raji-Luc-GFP tumour cells; test: Blinatumomab vaccine effect and CRS after discontinuation; format: in vivo, mouse
Experimental: Raji tumour cells and human T cells were co-cultured in serum-free medium and were treated with Blinatumomab for 24 h. After that, the cell culture medium was collected and the proteins in the medium were analyzed using proteomics. FIG. 44A: Large amount of damage associated molecule patterns (DAMPs); and FIG. 44B: tumour associated antigens were detected in the cell culture medium. FIG. 44C: Raji tumour bearing humanized NSG mice were treated with three doses of Blinatumomab. […] Then, Raji-Luc-GFP cell viability was determined. […] The data in FIG. 44C are presented as mean±s.d. (n=5) f. P value in FIG. 44C was determined using one-way ANOVA.
FIGS. 45A-45C: CRS symptoms cannot be stopped by simply stop the administration of Blinatumomab. FIG. 45A: humanized NSG mice were i.v. injected with Raji-Luc-GFP cells on day −14. Then Blinatumomab were administrated at days 1, 3, or 5. FIG. 45B: IL-6 level in mouse blood were monitored. FIG. 45C: survival curve.
It was also investigated if Blinatumomab could also induce a vaccine effect. […] It was also questioned whether CRS could be halted by simply discontinuing the administration of Blinatumomab, owing to its inherent short half-life. […] The pronounced targeting of T cells and CD19-expressing cells, coupled with heightened activation of many immune cells, served to amplify the cytokine cascade, rendering it impervious to interruption by the mere discontinuation of Blinatumomab usage. These findings underscore the critical exigency for the development of an alternative to Blinatumomab, one that can be switched off as needed, in this rapidly evolving research field.

[6] = system: Raji-Luc-GFP tumour cells; conditions: around day 33, after SiTE
Experimental: FIG. 42A: NSG-SGM3 mice were treated with Busulfan at day −50 to remove mouse bone marrow. At day −49, 10^5 human CD34^+ fetal liver cells were i.v. injected to let the mouse develop a human immune system. 10^6 Raji-Luc-GFP tumour cells were i.v. injected at day −14. At days 1, 3, and 5, PBS or SiTE was i.v. injected (in the PBS group, only PBS was injected to tumour-bearing mice). […] FIGS. 42B-42E: mouse body weight, temperature, IL-6 levels, and mouse survival curves, respectively. n=10 mice. The red stars in FIG. 42B indicate that mice were euthanized. FIG. 42F: measurements of IL-1 in mouse blood at different time points. n=10 mice. […] Brain H&E staining (FIG. 42I) and human CD68 immunohistochemistry (FIG. 42J) images of mice at day 35. The data in FIGS. 42B-42F were plotted as mean z s.d. (n=10) from three independent experiments.
It was also evaluated if the SiTE can help control neurotoxicity. In the clinic, neurotoxicity is usually delayed and occurs several […] after CRS onset. Tumour-bearing mice were treated with SiTE at days 1, 3 and 5 (FIG. 42A). […] Rather than use a preventative strategy for treating CRS (FIGS. 40A-40M), here Tocilizumab was used to treat CRS when symptoms presented, so that it can be compared directly with the SiTE strategy. […] Studies have shown that IL-1 is the major cause of neurotoxicity.

| Substance | tumour growth (Raji-Luc-GFP cells) | biodistribution ([1]; Raji tumour-bearing humanized mice expressing human CD19 in the liver) | biodistribution ([1]; healthy mice with a humanized immune system, i.v.) | fever and body weight ([2]; 5 mg/kg, days 1, 3, 5, SiTE targets human CD3/CD19) | plasma IL-6, IFN-γ, TNF-α, CXCL10 and CCL3 concentrations ([2]; after treatment) | tumour cell killing (IVIS) ([3]; 5 mg/kg i.v. x3, Tocilizumab pre-treatment) | on-target, off-tumour toxicity and CRS ([3]; 5 mg/kg i.v. x3) | half-life [4] [h] | release of DAMPs and tumour antigens from tumour cells ([5]; high dose, Raji cells and human T cells, 24 h) | tumour cell killing by T cells from treated mice ([5]; high dose, vs T cells from PBS-treated mice) | serum IL-6 ([5]; humanized NSG mice, persisted after cessation) | signs of lethal neurological syndrome [6] |
| --- | --- | --- | --- | --- | --- | --- | --- | --- | --- | --- | --- | --- |
| Blinatumomab: first BiTE to receive FDA approval; links CD3-positive T cells to CD19-expressing B cell cancers | substantial suppression of tumour growth | high accumulation of Blinatumomab in the tumours, livers, and spleens | accumulated greatly in the spleens | induced high fever and body weight loss | greatly increased | induced effective tumour cell killing | not only induced on-target, off-tumour toxicity in the liver, but led to strong CRS | 2.11 | substantial release of DAMPs and tumour antigens | substantial tumour cell killing | notable elevation of IL-6 levels | – |
| Tocilizumab: commercialized drug for CRS treatment; antibody for the IL-6 receptor | – | – | – | – | – | – | – | – | – | – | – | developed sudden paralysis |
